According to patent US20220112288A1 (published 2022):
Residue numbers refer to the chain shown, from its start. One block for each binder: values may come before it.

What was measured:
[1] = molecular target: T1, human CD8 on human pan T cells (CD4-negative population) (human, UniProt P01732 22-235; P10966 22-210); test: flow cytometry, 20 nM antibody on human pan T cells, A647 anti-human IgG Fc; geomean ratio in CD4-negative population
T1 construct: whole, on cells; Endogenous CD8 on primary human pan T cells, read in the CD4-negative gate; also called CD8α/β

[2] = molecular target: T2, human CD4 on cells (SKW3 cells; human PBMCs) (human, UniProt P01730 26-458); test: FACS confirmation, supernatant on human PBMCs;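 also: flow cytometry with hybridoma supernatants incubated on human PBMCs for 30 min at 4 °C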
T2 construct: whole, on cells; SKW3 CD4 knockout cells served as the negative cell line in the primary screen; also called hCD4; huCD4

[3] = molecular target: T2, human CD4 on cells (SKW3 cells; human …); test: FACS confirmation, supernatant on SKW3 cells; background gMFI 2500
[4] = molecular target: T2, human CD4 on cells (SKW3 cells; human …); test: FACS confirmation, supernatant on SKW3 cells; background gMFI 3300
[5] = molecular target: T2, human CD4 on cells (SKW3 cells; human …); test: FACS primary screen, hybridoma supernatant, SKW3 vs SKW3 CD4 KO cells;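 also: flow cytometry on mixed SKW3 and dye-labeled SKW3 CD4 knockout cells after 30 min at 4 °C with supernatant, ratio of binding signal on parental versus knockout cells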
[6] = molecular target: T3, human CD4 on cells (SKW3 cells; human PBMCs) (human, UniProt P01730 26-458); test: FACS confirmation, supernatant on human PBMCs, anti-mouse Fc 647, CD4+ gate
T3 construct: whole, on cells; SKW3 CD4 knockout cells served as the negative cell line; also called hCD4

[7] = molecular target: T3, human CD4 on cells (SKW3 cells; human …); test: FACS confirmation, supernatant on SKW3 WT cells, anti-mouse Fc 647; background gMFI 3300
[8] = molecular target: T3, human CD4 on cells (SKW3 cells; human …); test: FACS confirmation, supernatant on SKW3 WT cells, anti-human kappa FITC; background gMFI 2500
[9] = molecular target: T3, human CD4 on cells (SKW3 cells; human …); test: FACS confirmation, supernatant on human PBMCs, anti-mouse Fc 647, CD4+ percent of viable cells
[10] = molecular target: T3, human CD4 on cells (SKW3 cells; human …); test: FACS primary screen, non-clonal hybridoma supernatant, SKW3 vs SKW3 CD4 knockout cells, anti-mouse Fc A647
[11] = molecular target: T3, human CD4 on cells (SKW3 cells; human …); test: FACS primary screen, non-clonal hybridoma supernatant, SKW3 vs SKW3 CD4 knockout cells, anti-human kappa FITC
huCD4-HIS = molecular target: T4, huCD4-HIS (human, UniProt P01730 26-390, limits assumed); test: ELISA binning, competitor Ibalizumab; 100 ng/mL huCD4-HIS, anti-HIS HRP detection; background 45, max binding 3000000
T4 construct: the ELISA binning is not described in the text of this stretch

[12] = molecular target: T3, human CD4 on cells (SKW3 cells; human …); test: FACS binning on SKW3 cells pre-incubated with supernatant; competitor OKT4-A488, its signal read; background 2163, max binding 8200
[13] = molecular target: T3, human CD4 on cells (SKW3 cells; human …); test: FACS binning on SKW3 cells pre-incubated with supernatant; competitor RPA-T4-PE-Dazzle 594, its signal read; background 783, max binding 15000
[14] = molecular target: T3, human CD4 on cells (SKW3 cells; human …); test: FACS binning on SKW3 cells pre-incubated with supernatant; competitor OKT4a read with anti-human A647 secondary; background 5000, max binding 35000

T1 sequence (P01732 22-235, chain 1 of 2): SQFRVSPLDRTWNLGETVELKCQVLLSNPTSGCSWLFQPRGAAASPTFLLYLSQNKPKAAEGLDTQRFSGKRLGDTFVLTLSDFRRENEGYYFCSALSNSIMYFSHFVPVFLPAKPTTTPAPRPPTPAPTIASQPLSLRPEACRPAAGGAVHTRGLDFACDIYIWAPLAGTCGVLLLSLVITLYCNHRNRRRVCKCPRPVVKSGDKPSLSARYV
T1 sequence (P10966 22-210, chain 2 of 2): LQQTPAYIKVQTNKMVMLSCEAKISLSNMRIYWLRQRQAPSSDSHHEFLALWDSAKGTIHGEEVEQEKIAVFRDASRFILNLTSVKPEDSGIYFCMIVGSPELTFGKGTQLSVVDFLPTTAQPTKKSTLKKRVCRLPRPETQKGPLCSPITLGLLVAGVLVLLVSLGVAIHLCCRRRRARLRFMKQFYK

Cell Binding to Human PanT Signal/Background (of CD4 negative population) [1]: 1200
B1: CD8B347 (antibody, human IgG1, kappa)
heavy: not shown
light: DIQMTQSPASLSASVGETVTITCRASGNIHNYLAWYQQKQGKSPQLLVFNAETLADGVPSRFSGSGSGTQFSLKINSLQPEDFGTYYCQHFWNNPLTLGAGTKLELKRTVAAPSVFIFPPSDEQLKSGTASVVCLLNNFYPREAKVQWKVDNALQSGNSQESVTEQDSKDSTYSLSSTLTLSKADYEKHKVYACEVTHQGLSSPVTKSFNRGEC
notes: Full-length human IgG1, kappa; V regions recovered from mouse hybridoma

Cell Binding to Human PanT Signal/Background (of CD4 negative population) [1]: 537
B5: CD8B350 (antibody, human IgG1, kappa, V domains shown)
VH: EVQLQQSGAELAKPGTSVKMSCKASGYTFAAYWINWLKQRPGQGLEWIGSINPSNGYTEYSQKFKDKAILTADKSSSTAYMQLSSLTSEDSAVYYCSRSGLYYTNHLAWCPYWGQGTTVTVSS
VL: DIVMTQSPASLSASVGETVTITCRASGNIHNYLAWYQQKQGKSPQVLVYNAETLADSVPSRFSGSGSGTQFSLKINSLQPEDFGNYYCQHFWNSPLTFGGGTKLEIKR
notes: as for B1

Cell Binding to Human PanT Signal/Background (of CD4 negative population) [1]: 37
B6: CD8B251 (antibody, human IgG1, kappa, V domains shown)
VH: QVQLKGSGPGLVQPSQSLSITCTVSGFSLTTYAVHWVRQSPGKGLEWLGVIWSGGSTDYNAAFISRLSISKDNSKSQVFFKMNSLQADDTAIYYCARHSYYHYNAMDNWGQGTSVTVSS
VL: DIKMTQSQKFMSTTVGDRVSITCKASQNVGTAVAWYQQKPGQSPKLLIYSASNRYTGVPDRFTGSGSGTDFTLTISNMQSEDLADYFCQQYSSYPFTFGSGTKLEIKR
notes: as for B1

Cell Binding to Human PanT Signal/Background (of CD4 negative population) [1]: 29
B10: CD8B310 (antibody, human IgG1, kappa, V domains shown)
VH: QVQLKESGPGLVAPSQSLSITCTVSGFSLTNYAVHWVRQSPGKGLEWLGVIWTDGSTDYNAGFISRLSISKDNSKSQVFFKMNSLQADDTAIYYCARNNGYFPAFFAYWGQGTTVTVSS
VL: DVLMTQTPLSLPVSLGDQASISCRSSQTIVHSNGNTYLEWYLQKPGQSPKLLMYKVSNRFSGVPDRFGGSGSGTDFTLKISRVEAEDLGVYYCFQGSHAPFTFGSGTKLEIKR
notes: as for B1

Cell Binding to Human PanT Signal/Background (of CD4 negative population) [1]: 777
B11: CD8B356 (antibody, human IgG1, kappa, V domains shown)
VH: DVQLQESGPGLVKPSQSLSLTCSVTGYSITSGYYWNWIRQFPGNKLEWMGYISYDGSNNYNPSLKNRISITRDTSKNQFFLKLNSVTTEDTATYYCVRNHGDAMDYWGQGTSVTVSS
VL: DIVLTQSQKFMSTTVGDRVSITCKASQNVGTAVAWYQQKPGQSPKLLIYSASYRYTGVPDRFTGSGSGTHFTLTISNMQSEDLADYFCQQYSSYLTFGSGTKLEIKR
notes: as for B1

Cell Binding to Human PanT Signal/Background (of CD4 negative population) [1]: 16
B12: CD8B319 (antibody, human IgG1, kappa, V domains shown)
VH: QVQLKESGPELKKPGETVKISCKASGYSFTAYYMHWVKQSPEKSLEWIGEINPSAGGTTYNQKFKAKATLTVDKSSSTAFIQLKSLTSEDSAVYYCARWTNPFDYWGQGTTLTVSS
VL: B11 VL with L4M, M78I, S92N, S93N
notes: as for B1

Cell Binding to Human PanT Signal/Background (of CD4 negative population) [1]: 26
B13: CD8B269 (antibody, human IgG1, kappa, V domains shown)
VH: B11 VH with Y106H, S112T, V113L
VL: DIVMTQSQKFMSTSVGDRVRVTCKASQNVGTDVAWYQQKPGQSPKALIYSASYRYSGVPDRFTGSGSGTDFTLTISDVQSEDLAEYFCQQYKSYPLTFGAGTKLELKR
notes: as for B1

Further lines, the binder ahead of its results:

B2: 75110_06E14A (antibody, V domains shown)
VH: QVQLQESGPGLVKPSETLSLTCTVSGGSISNYFWSWIRQPAGKGLEWIGRIYSSGNTNYNPSLKSRVTMSVDTSKNQFSLKLSSVTAADTAVYYCARDREDYYYYGMDVWGQGTTVTVSS
VL: DIQMTQSPSSLSASVGDRVTITCQASQDISNYLNWYQQKPGKAPKLLIYGASILETGVPSRFTGSGSGTDFTFTISSLQPEDIATYYCQQYDSLPITFGQGTRLEIK
notes: Tested as non-clonal AlivaMab Mouse Kappa hybridoma supernatant (detected with anti-mouse Fc gamma and anti-human kappa)
PBMCs CD4+ gate RL1 binding, anti-mFc 647 [2]: 285000
PBMCs CD4+ percent bound of viable [2]: 30%
gMFI on SKW3 WT, anti-hu Kappa FITC [3]: 8920 gMFI
gMFI on SKW3 WT, anti-mFc 647 [4]: 33800 gMFI
SKW3 WT vs KO ratio, anti-hKappa-FITC [5]: 3
SKW3 WT vs KO ratio, anti-mFc-647 [5]: 9.8

B3: 75110_14I16A (antibody, V domains shown)
VH: B2 VH with G26N, N31S, F33Y, P40S, S53T, N56S, S70L
VL: DIQMTQSPSSLSASVGDRVTITCQASHDISNYLNWYQQKPGKAPKLLLYYASNLETGVPSRFSGSGSGTDFTFTITSLQPEDIGTYSCQQYDNLPLTFGGGTKVEIK
notes: Tested as non-clonal AlivaMab Mouse Kappa hybridoma supernatant (detected with anti-mouse Fc gamma and anti-human kappa); also called 75110_14116A
PBMCs CD4+ gate RL1 binding, anti-mFc 647 [2]: 196000
PBMCs CD4+ percent bound of viable [2]: 23%
gMFI on SKW3 WT, anti-hu Kappa FITC [3]: 3550 gMFI
gMFI on SKW3 WT, anti-mFc 647 [4]: 6820 gMFI
SKW3 WT vs KO ratio, anti-hKappa-FITC [5]: 1.4
SKW3 WT vs KO ratio, anti-mFc-647 [5]: 2.1

B4: 75110_08M20A (antibody, V domains shown)
VH: B2 VH with G8D, N31S, F33Y, S53A, N56S, D101G
VL: B2 VL with N31K, K45N, G50A, I53N, T63S, T85A
notes: as for B2
PBMCs CD4+ gate RL1 binding, anti-mFc 647 [2]: 319000
PBMCs CD4+ percent bound of viable [2]: 30%
gMFI on SKW3 WT, anti-hu Kappa FITC [3]: 7790 gMFI
gMFI on SKW3 WT, anti-mFc 647 [4]: 30700 gMFI
SKW3 WT vs KO ratio, anti-hKappa-FITC [5]: 2.7
SKW3 WT vs KO ratio, anti-mFc-647 [5]: 8.8

B7: CD8B182 (antibody, human IgG1, kappa, V domains shown)
VH: EVQLQQSGAALAKPGTSVKMSCKASGYTFTSYWMNWVRQRPGQGLEWIGAVNPTNYYTEYIQKFKDKAILTADKSSSTAYMHLSGLTSEDSAVYYCARSGLYNTNHLAWFAYWGQGTTVTVSS
VL: DIKMTQSPASLSASVGETVTITCRASENIHNYLAWYQQIQGKSPQLLVYNAKTLANGVPSRFSGSASGTQFSLTINSLQPEDFGSYYCQHFWTTPLTFGAGTKLELKR
notes: as for B1
Cell Binding to Human PanT Signal/Background (of CD4 negative population) [1]: 1490

B8: 75110_06D16A (antibody, V domains shown)
VH: QVQLQQWGAGLLKPSETLSLTCAVYGGSFSGYYWSWIRQPPGKGLEWIGEINHSGSTNYNPSLKSRVTISVVTSKNQFSLKLSSVTAADTAVYYCARVLNWFDPWGQGTLVTVSS
VL: DIQMTQSPSSVSASVGDRVTITCRASQDIADWLAWYQQKPGKAPKLLIYAASSFQSGVPSRFSGSGSGTDFTLTISSLQPEDFATYFCQQANSFPYTFGQGTKLEIK
notes: Tested as non-clonal AlivaMab Mouse Kappa hybridoma supernatant: human variable domains and human kappa, mouse Fc (detected with anti-mouse Fc)
PBMCs, anti-mFc 647 CD4+ gate - RL1 Binding [6]: 216000
SKW3 WT anti-mFc 647, gMFI [7]: 41300 gMFI
SKW3 WT anti-hu Kappa FITC, gMFI [8]: 8670 gMFI
PBMCs, anti-mFc 647 CD4+ Percent Bound of Viable [9]: 29%
SKW3 WT vs KO anti-mFc-647 [10]: 4 fold
SKW3 WT vs KO anti-hKappa-FITC [11]: 2.5 fold
Ibalizumab ELISA binning signal (huCD4-HIS): 1.27e+06
SKW3 FACS Binning OKT4 A488 [12]: 9980
SKW3 FACS Binning RPA-T4-PE-Dazzle 594 [13]: 21300
SKW3 FACS Binning OKT4a anti-hu A647 Secondary [14]: 5800

B9: 75110_07B16A (antibody, IgG1, V domains shown)
VH: B8 VH with P40S, H53Q, V72D, N76D, L99I, P104S, T109S
VL: B8 VL with D28G, A30S, D31S, A50D, P80T, E81D, F87Y
notes: Tested as non-clonal AlivaMab Mouse Kappa hybridoma supernatant: human variable domains and human kappa, mouse Fc
PBMCs, anti-mFc 647 CD4+ gate - RL1 Binding [6]: 274000
SKW3 WT anti-mFc 647, gMFI [7]: 30800 gMFI
SKW3 WT anti-hu Kappa FITC, gMFI [8]: 7220 gMFI
PBMCs, anti-mFc 647 CD4+ Percent Bound of Viable [9]: 29%
SKW3 WT vs KO anti-mFc-647 [10]: 11.4 fold
SKW3 WT vs KO anti-hKappa-FITC [11]: 3 fold
Ibalizumab ELISA binning signal (huCD4-HIS): 1.31e+06
SKW3 FACS Binning OKT4 A488 [12]: 9280
SKW3 FACS Binning RPA-T4-PE-Dazzle 594 [13]: 20600
SKW3 FACS Binning OKT4a anti-hu A647 Secondary [14]: 5320
